The text below walks through data of patent US20240025977A1 (UNIVERSITY HEALTH NETWORK, published 2024).

The target of experiment [1] is T1, misfolded/unfolded AL12 kappa light chain.
T1 construct: also called misfolded AL12
In words: bio-layer interferometry, Octet fit, table inset. The procedure:
(§1) FIGS. 13A-13D are bio-layer interferometry sensorgrams of binding interactions between LX-96 and misfolded (FIG. 13A, 13C) or native kappa light chain variants (FIG. 13B, 13D). Binding of LX-96 with its targets at a range of target concentrations was measured by changes in wavelength (nm) over 2000 seconds (300s association, 1700s dissociation). Association and dissociation curves were fit using Octet Systems Software to determine KD, KD Error, X2 and R2 values (table insets; FIGS. 13A-13D).
(§2) We quantified the monovalent binding affinity of LX-96 using bio-layer interferometry (BLI). LX-96 was loaded onto Anti-Mouse IgG Fc Capture (AMC) biosensors and dipped into a solution of varying concentrations of misfolded AL09 (0-200 nM) or native AL09 (0-3000 nM). From the sensorgram, we observed rapid association of misfolded AL09 with LX-96, followed by a slow dissociation step (FIG. 13A). […] This confirms that LX-96 is capable of binding specifically to the misfolded form of different kappa light chain variants at similar, single-digit nanomolar affinities.

Experiment [2] has as its target FITC-labeled AL09 under amyloid-forming conditions. The experiment is described as follows: cell-based or functional assay.
Experiment [3] addresses ATTR amyloid in human cardiac tissue (human, UniProt P02766 21-147). In words: immunohistochemistry, ATTR cardiac tissue.
Experiment [4] has as its target T1, misfolded/unfolded AL12 kappa light …. The experiment is described as follows: BLI (Octet), LX-96 on Anti-Mouse IgG Fc Capture biosensors, misfolded AL12 in solution. On the procedure: as §1, §2
Experiment [5] deals with T2, IAPP (islet amyloid polypeptide) amyloid in pancreatic tissue (human, UniProt P10997 34-70).
T2 construct: Tissue section; also called IAPP pancreatic tissue
T2 chain (looked up): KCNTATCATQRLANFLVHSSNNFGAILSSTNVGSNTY
The experiment is described as follows: immunohistochemistry, pancreatic tissue.

Experiment [6] concerns the target T3, misfolded/unfolded AL09 kappa light chain.
T3 construct: Same polypeptide as native AL09, in a chemically unfolded, reduced and alkylated state; also called misfolded AL09; mis/unfolded AL09
The experiment is described as follows: BLI (Octet), LX-96 on Anti-Mouse IgG Fc Capture biosensors, misfolded AL09 0-200 nM in solution. On the procedure:
as §1, §2

Bounds are passed on as bounds.

B1: LX-96 anti-kappa monoclonal antibody (antibody, V domains shown)
VH: QVQLQQPGAELARPGASVKLSCKASGYTFTSFWIQWIKQRPGQGLEWIGSIYPGDGDTRYIQKFRGKATLTADESSSTAYMQLSSLASEDSAIYYCAIVTTAPDYWGQGTTLTVSS
VL: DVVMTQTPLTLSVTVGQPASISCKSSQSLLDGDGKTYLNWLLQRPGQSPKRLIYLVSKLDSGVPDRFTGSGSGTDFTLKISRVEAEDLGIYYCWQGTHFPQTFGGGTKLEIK
notes: Fluorescently labeled in the in vivo localisation assay; also called anti-κ monoclonal antibody
As to B1, the Kd in experiment [1] was 7.47 nM; in experiment [4], 7.5 nM; in experiment [6] it was 1.12 nM. For the same molecule, the “inhibition of AL09 aggregation (FITC fluorescence of the soluble fraction at endpoint), IC50” value in experiment [2] was less than 1000 nM. The binding result in experiment [3] and in experiment [5] was “no binding” throughout.
